Test results taken from patent US20250084176A1 (F STAR BETA, published 2025).

Key:
[1] = biological target: T1, human CD137, full length, on cells (human, UniProt Q07011 24-255); test: cell-based or functional assay
[2] = biological target: T2, cCD137-mFc-Avi (cynomolgus; mouse, one biotin on the Avi sequence of each monomer (BirA); unbiotinylated in the SPR of Example 5.6); test: SPR (Biacore), mAb2 captured by anti-human Fab, antigen in solution, 1:1 Langmuir
T2 construct: also called cyno CD137-mFc-Avi; dimeric cynomolgus CD137; not shown: mouse IgG2a Fc domain (mIgG2a Fc)
T2 chain: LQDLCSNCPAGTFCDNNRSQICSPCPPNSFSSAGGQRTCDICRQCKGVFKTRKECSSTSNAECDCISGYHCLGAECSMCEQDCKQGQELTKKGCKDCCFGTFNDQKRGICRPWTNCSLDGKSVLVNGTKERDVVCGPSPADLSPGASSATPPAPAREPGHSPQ
Description: (§1) An anti-human Fab capture antibody was immobilised on all four flow cells of a CM5 series S chip (GE Healthcare #BR-1005-30) to an average surface density of 6000 RU following the manufacturer's recommendations (GE Healthcare, human Fab capture Kit, #28958325). IEach mAb² was captured to approximately 150 RU by injecting a 3 μg/ml solution of mAb² diluted in HBS-EP+ buffer (GE Healthcare #BR1006-69) for 60 seconds at 30 μl/min. Then different concentrations of human, cyno or mouse CD137 antigen (unbiotinylated human, cyno or mouse CD137-mFc-Avi or human CD137-Avi-His) in HBS-EP+ buffer were flowed over the chip for 3 min at 60 μl/min and then allowed to dissociate for 10 minutes. After each antigen concentration the chip was regenerated by infecting 10 mM glycine pH 2.1 at a flow rate of 30 μl/min for 30 seconds. Buffer HBS-EP+ was injected before the highest concentration of antigen and after the lowest concentration of antigen for reference subtraction, and one of the concentrations at random was repeated twice. The binding kinetics were fit with a 1:1 Langmuir model to generate equilibrium binding constants (KD) for each sample. Data analysis was performed with BiaEvaluation software version 3.2.

[3] = biological target: T3, hCD137-mFc-Avi (human; mouse, UniProt Q07011 24-186, one biotin on the Avi sequence of each monomer (BirA); unbiotinylated in the SPR of Example 5.6); test: as above
T3 construct: Made in-house in HEK293-6E; also called human CD137-mFc-Avi; dimeric human CD137; not shown: mouse IgG2a Fc domain (mIgG2a Fc)
T3 sequence (Q07011 24-186): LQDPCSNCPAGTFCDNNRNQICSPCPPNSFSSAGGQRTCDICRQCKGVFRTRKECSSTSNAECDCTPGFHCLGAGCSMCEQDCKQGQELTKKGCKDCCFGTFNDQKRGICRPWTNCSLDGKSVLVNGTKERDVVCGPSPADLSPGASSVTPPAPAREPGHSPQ
Description: as §1

[4] = biological target: T4, hCD137-Avi-His (human, UniProt Q07011 24-186, single biotin on the Avi sequence (BirA); unbiotinylated in the SPR of Example 5.6); test: as above
T4 construct: also called human CD137-Avi-His; monomeric human CD137
T4 sequence (Q07011 24-186): as above
Description: as §1

[5] = biological target: human CD40 (human, UniProt P25942 21-193); test: SPR (Biacore T200), receptor amine-coupled to CM5 chip
Chain of human CD40 (P25942 21-193 limits assumed): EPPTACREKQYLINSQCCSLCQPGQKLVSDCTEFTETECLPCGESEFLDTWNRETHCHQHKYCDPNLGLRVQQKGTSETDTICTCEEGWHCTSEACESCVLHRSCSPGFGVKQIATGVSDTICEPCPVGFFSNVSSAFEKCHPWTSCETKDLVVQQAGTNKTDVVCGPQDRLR
Description: (§2) The specificity of the anti-human CD137 Fcabs for human CD137 compared to other related TNFSFR family members was tested. 8 of the Fcabs were tested in mock mAb² (HeID1.3) format and measured by SPR in a Biacore T200 (GE Healthcare) by testing for binding to other human TNFRSF receptors: CD40, OX40 and GITR. Amine coupling (amine coupling kit, GE Healthcare, BR-1000-50) was used to coat human CD40, GITR and OX40 to approximately 1000 RU in Biacore CM5 chips (GE Healthcare, cat no 29149603). […] The chip was regenerated by injection of 10 mM glycine pH 2.5 for 12 s at 30 μl/min. Antibodies specific to the different TNFRSF members were used as positive controls to verify Biacore chip coating. Data was double reference subtracted and analysed using BIAevaluation 3.2 software.

[6] = biological target: T5, human GITR (human, UniProt Q9Y5U5 26-161, limits assumed); test: as above
T5 sequence (looked up): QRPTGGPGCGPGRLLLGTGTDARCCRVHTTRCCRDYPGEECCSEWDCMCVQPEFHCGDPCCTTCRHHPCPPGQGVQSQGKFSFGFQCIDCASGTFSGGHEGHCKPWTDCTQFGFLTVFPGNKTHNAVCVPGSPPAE
Description: as §2

[7] = biological target: T6, human OX40 (human, UniProt P43489 29-216, limits assumed); test: as above
T6 sequence (looked up): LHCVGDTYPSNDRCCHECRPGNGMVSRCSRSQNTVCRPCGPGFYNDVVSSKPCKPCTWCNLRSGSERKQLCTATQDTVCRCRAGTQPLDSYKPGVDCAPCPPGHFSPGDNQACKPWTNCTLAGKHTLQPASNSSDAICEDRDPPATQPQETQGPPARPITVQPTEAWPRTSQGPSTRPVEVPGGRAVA
Description: as §2

[8] = biological target: T1, human CD137, full length, on cells; test: cell-based or functional assay; remark: listed apart in the source
[9] = biological target: T1, human CD137, full length, on cells; test: cell-based or functional assay; remark: listed apart in the source
[10] = biological target: T7, mouse CD137, full length, on cells (mouse, UniProt P20334 24-256); test: cell-based or functional assay
T7 sequence (P20334 24-256): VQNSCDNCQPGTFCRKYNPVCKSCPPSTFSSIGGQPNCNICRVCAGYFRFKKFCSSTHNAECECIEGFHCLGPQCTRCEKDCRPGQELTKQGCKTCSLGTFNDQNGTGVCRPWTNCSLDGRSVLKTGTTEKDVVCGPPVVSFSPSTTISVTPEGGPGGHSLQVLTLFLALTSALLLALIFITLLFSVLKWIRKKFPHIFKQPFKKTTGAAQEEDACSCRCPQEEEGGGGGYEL

[11] = biological target: T7, mouse CD137, full length, on cells; test: cell-based or functional assay; remark: listed apart in the source
[12] = biological target: T3, hCD137-mFc-Avi; test: SPR (Biacore T200), mAb2 captured by anti-human Fab, hCD137-mFc in solution, 1:1 Langmuir
Description: For the hCD137-mFc-Avi antigen the following method was used: an anti-human Fab molecule was immobilised on a CM5 chip to a surface density of between 9,000 and 11,000 response units (RU). The antibodies were diluted to 4 μg/ml in HBS-EP buffer and captured by the anti-Fab molecule with a flow rate of […].
For mCD137-mFc-Avi binding kinetic determination, a different approach was used. […] The analysis of the data was done using the Biacore T200 evaluation software. Curves were subtracted against a blank flow cell and fitted using a 1:1 Langmuir binding model with mass transfer, setting RI to zero as constant and Rₘₐₓ to local.

T1 sequence (Q07011 24-255): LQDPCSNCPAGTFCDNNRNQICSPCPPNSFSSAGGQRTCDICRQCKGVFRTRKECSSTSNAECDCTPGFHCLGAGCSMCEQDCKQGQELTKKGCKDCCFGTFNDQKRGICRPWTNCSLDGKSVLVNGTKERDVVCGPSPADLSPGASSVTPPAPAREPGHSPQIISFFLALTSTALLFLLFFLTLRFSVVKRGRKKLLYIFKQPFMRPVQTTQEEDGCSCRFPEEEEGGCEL

B1: FS22-053/HelD1.3 (bispecific antibody, human IgG1, kappa)
heavy: QVQLQESGPGLVRPSQTLSLTCTVSGSTFSGYGVNWVRQPPGRGLEWIGMIWGDGNTDYNSALKSRVTMLVDTSKNQFSLRLSSVTAADTAVYYCARERDYRLDYWGQGSLVTVSSASTKGPSVFPLAPSSKSTSGGTAALGCLVKDYFPEPVTVSWNSGALTSGVHTFPAVLQSSGLYSLSSVVTVPSSSLGTQTYICNVNHKPSNTKVDKKVEPKSCDKTHTCPPCPAPELLGGPSVFLFPPKPKDTLMISRTPEVTCVVVDVSHEDPEVKFNWYVDGVEVHNAKTKPREEQYNSTYRVVSVLTVLHQDWLNGKEYKCKVSNKALPAPIEKTISKAKGQPREPQVYTLPPSRDELNPPYLFSNQVSLTCLVKGFYPSDIAVEWESNGQPENNYKTTPPVLDSDGSFFLYSKLTVYYNRWQDGNVFSCSVMHEALHNHYTQKSLSLSPG
light: DIQMTQSPASLSASVGETVTITCRASGNIHNYLAWYQQKQGKSPQLLVYNAKTLADGVPSRFSGSGSGTQYSLKINSLQPEDFGSYYCQHFWSTPRTFGGGTKLEIKRTVAAPSVFIFPPSDEQLKSGTASVVCLLNNFYPREAKVQWKVDNALQSGNSQESVTEQDSKDSTYSLSSTLTLSKADYEKHKVYACEVTHQGLSSPVTKSFNRGEC
notes: Mock mAb^2, IgG1 without LALA; also called FS22-053/HeID1.3
NF-kB luciferase reporter (HEK.FRT.luc.hCD137), signal with against without Protein L [1]: ≥ 10 fold
Kd [2]: 34 nM
Kd [3]: 38 nM

B2: FS22-172/HelD1.3 (bispecific antibody, human IgG1, kappa)
heavy: QVQLQESGPGLVRPSQTLSLTCTVSGSTFSGYGVNWVRQPPGRGLEWIGMIWGDGNTDYNSALKSRVTMLVDTSKNQFSLRLSSVTAADTAVYYCARERDYRLDYWGQGSLVTVSSASTKGPSVFPLAPSSKSTSGGTAALGCLVKDYFPEPVTVSWNSGALTSGVHTFPAVLQSSGLYSLSSVVTVPSSSLGTQTYICNVNHKPSNTKVDKKVEPKSCDKTHTCPPCPAPELLGGPSVFLFPPKPKDTLMISRTPEVTCVVVDVSHEDPEVKFNWYVDGVEVHNAKTKPREEQYNSTYRVVSVLTVLHQDWLNGKEYKCKVSNKALPAPIEKTISKAKGQPREPQVYTLPPSRDELRKYYPPYNQVSLTCLVKGFYPSDIAVEWESNGQPENNYKTTPPVLDSDGSFFLYSKLTVGADRWLEGNVFSCSVMHEALHNHYTQKSLSLSPG
light: DIQMTQSPASLSASVGETVTITCRASGNIHNYLAWYQQKQGKSPQLLVYNAKTLADGVPSRFSGSGSGTQYSLKINSLQPEDFGSYYCQHFWSTPRTFGGGTKLEIKRTVAAPSVFIFPPSDEQLKSGTASVVCLLNNFYPREAKVQWKVDNALQSGNSQESVTEQDSKDSTYSLSSTLTLSKADYEKHKVYACEVTHQGLSSPVTKSFNRGEC
notes: Mock mAb^2, IgG1 without LALA
NF-kB luciferase reporter (HEK.FRT.luc.hCD137), signal with against without Protein L [1]: ≥ 10 fold
Kd [2]: 203 nM
Kd [3]: 52 nM

B3: FS22-172-004/HelD1.3 (bispecific antibody, human IgG1, kappa)
heavy: QVQLQESGPGLVRPSQTLSLTCTVSGSTFSGYGVNWVRQPPGRGLEWIGMIWGDGNTDYNSALKSRVTMLVDTSKNQFSLRLSSVTAADTAVYYCARERDYRLDYWGQGSLVTVSSASTKGPSVFPLAPSSKSTSGGTAALGCLVKDYFPEPVTVSWNSGALTSGVHTFPAVLQSSGLYSLSSVVTVPSSSLGTQTYICNVNHKPSNTKVDKKVEPKSCDKTHTCPPCPAPELLGGPSVFLFPPKPKDTLMISRTPEVTCVVVDVSHEDPEVKFNWYVDGVEVHNAKTKPREEQYNSTYRVVSVLTVLHQDWLNGKEYKCKVSNKALPAPIEKTISKAKGQPREPQVYTLPPSRDELNYIYPPYNQVSLTCLVKGFYPSDIAVEWESNGQPENNYKTTPPVLDSDGSFFLYSKLTVGADRWLEGNVFSCSVMHEALHNHYTQKSLSLSPG
light: DIQMTQSPASLSASVGETVTITCRASGNIHNYLAWYQQKQGKSPQLLVYNAKTLADGVPSRFSGSGSGTQYSLKINSLQPEDFGSYYCQHFWSTPRTFGGGTKLEIKRTVAAPSVFIFPPSDEQLKSGTASVVCLLNNFYPREAKVQWKVDNALQSGNSQESVTEQDSKDSTYSLSSTLTLSKADYEKHKVYACEVTHQGLSSPVTKSFNRGEC
notes: Mock mAb^2, IgG1 without LALA
Human monomeric CD137 KD fold difference relative to human dimeric KD [4]: > 200 fold
Kd [2]: 3.5 nM
Kd [3]: 4.3 nM
binding result [5]: no binding (tested: starting at 1 µM)
binding result [6]: no binding (tested: starting at 1 µM)
binding result [7]: no binding (tested: starting at 1 µM)
NF-kB signalling, HEK.FRT.luc.hCD137, +XL (EC50 nM) [8]: 124 nM

B4: FS22-053-017/HelD1.3 (bispecific antibody, human IgG1, kappa)
heavy: QVQLQESGPGLVRPSQTLSLTCTVSGSTFSGYGVNWVRQPPGRGLEWIGMIWGDGNTDYNSALKSRVTMLVDTSKNQFSLRLSSVTAADTAVYYCARERDYRLDYWGQGSLVTVSSASTKGPSVFPLAPSSKSTSGGTAALGCLVKDYFPEPVTVSWNSGALTSGVHTFPAVLQSSGLYSLSSVVTVPSSSLGTQTYICNVNHKPSNTKVDKKVEPKSCDKTHTCPPCPAPELLGGPSVFLFPPKPKDTLMISRTPEVTCVVVDVSHEDPEVKFNWYVDGVEVHNAKTKPREEQYNSTYRVVSVLTVLHQDWLNGKEYKCKVSNKALPAPIEKTISKAKGQPREPQVYTLPPSRDELNPPYLFSNQVSLTCLVKGFYPSDIAVEWESNGQPENNYKTTPPVLDSDGSFFLYSKLTVYHWRWLEGNVFSCSVMHEALHNHYTQKSLSLSPG
light: DIQMTQSPASLSASVGETVTITCRASGNIHNYLAWYQQKQGKSPQLLVYNAKTLADGVPSRFSGSGSGTQYSLKINSLQPEDFGSYYCQHFWSTPRTFGGGTKLEIKRTVAAPSVFIFPPSDEQLKSGTASVVCLLNNFYPREAKVQWKVDNALQSGNSQESVTEQDSKDSTYSLSSTLTLSKADYEKHKVYACEVTHQGLSSPVTKSFNRGEC
notes: Mock mAb^2, IgG1 without LALA; also called FS22-053-17; FS22-053-017/HeID1.3
IL-2 release, human CD137 DO11.10 T cell activation assay, Protein L: +XL EC50 [9]: 0.82 nM
IL-2 release, mouse CD137 DO11.10 T cell activation assay, Protein L: +XL EC50 [10]: 16.7 nM
IL-2 release, mouse CD137 DO11.10 T cell activation assay, Protein L: +XL Emax [10]: 41000 pg/mL
IL-2 release, mouse CD137 DO11.10 T cell activation assay: EC50 against that of FS22-053-014 [11]: ~8 fold
Kd [12]: 4.59 nM
koff [12]: 0.000406 s⁻¹
kon [12]: 88500 M⁻¹ s⁻¹
